Reference: IntAct's records for PubMed 23164639

B1: Peroxiredoxin-6 (Mus musculus), O08709 (parent)
chain: MPGGLLLGDEAPNFEANTTIGRIRFHDFLGDSWGILFSHPRDFTPVCTTELGRAAKLAPEFAKRNVKLIALSIDSVEDHLAWSKDINAYNGETPTEKLPFPIIDDKGRDLAILLGMLDPVEKDDNNMPVTARVVFIFGPDKKLKLSILYPATTGRNFDEILRVVDSLQLTGTKPVATPVDWKKGESVMVVPTLSEEEAKQCFPKGVFTKELPSGKKYLRYTPQP

Variants of: B1
Details: with gstp1_mouse Gstp1, P19157
Chain of gstp1_mouse Gstp1, P19157 (P19157 whole entry): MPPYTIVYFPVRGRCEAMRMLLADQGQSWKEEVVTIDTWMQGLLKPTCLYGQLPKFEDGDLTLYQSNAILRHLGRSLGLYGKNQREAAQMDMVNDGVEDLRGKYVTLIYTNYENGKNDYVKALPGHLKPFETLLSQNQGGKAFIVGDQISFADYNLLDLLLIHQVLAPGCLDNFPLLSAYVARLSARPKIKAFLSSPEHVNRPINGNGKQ

| Variant | effect of a mutation on the interaction |
| --- | --- |
| MPGGLLLGDEAPNFEANTTIGRIRFHDFLGDSWGILFSHPRDFTPVSTTELGRAAKLAPEFAKRNVKLIALSIDSVEDHLAWSKDINAYNGETPTEKLPFPIIDDKGRDLAILLGMLDPVEKDDNNMPVTARVVFIFGPDKKLKLSILYPATTGRNFDEILRVVDSLQLTGTKPVATPVDWKKGESVMVVPTLSEEEAKQCFPKGVFTKELPSGKKYLRYTPQP [C47S] | disrupting interaction |
